Experimental data published in paper PMC7064404.

How the values were obtained:
[1] = molecular target: GFP-tagged full length Shank3 S685D (rat) (rat); experiment: co-IP
[2] = molecular target: GFP-tagged full length Shank3 S685A (rat) (rat); experiment: co-IP
[3] = molecular target: GST-Shank3 (572-691) wild type, pre-phosphorylated by CaMKIIα at Ser685 (rat); experiment: pull-down
GST-Shank3 (572-691) wild type, pre-phosphorylated by CaMKIIα at Ser685 (rat), sequence (Q9JLU4 572-691): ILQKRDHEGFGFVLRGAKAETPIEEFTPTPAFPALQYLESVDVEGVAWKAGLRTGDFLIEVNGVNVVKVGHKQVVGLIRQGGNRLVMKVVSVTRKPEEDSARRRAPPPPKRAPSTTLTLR

percent reduction of co-immunoprecipitated HA-ABI1 (HA/GFP) compared to WT [1]: 32%
percent reduction of co-immunoprecipitated HA-ABI1 (HA/GFP) compared to WT [2]: 37%
HA-ABI1 binding (HA/GST) relative to no CaMKII condition [3]: 148%
Substance: N-terminal HA-tagged ABI1 (Abelson interactor 1), full length (from UniProt Q8IZP0 1-508) (natural protein)
